# Assay results reported in paper PMC8145246 (Toxins, 2021).
# B1: MazF-mt1 toxin (M. tb), purified protein (enzyme)
# chain: MMRRGEIWQVDLDPARGSEANNQRPAVVVSNDRANATATRLGRGVITVVPVTSNIAKVYPFQVLLSATTTGLQVDCKAQAEQIRSIATERLLRPIGRVSAAELAQLDEALKLHLDLWS
# Columns and labels:
# [1] = molecular target: B1; assay: crystal structure; settings: both partners purified
# crystal structure = molecular target: the molecule itself; assay: crystal structure
Binder,binding result [1],binding result (crystal structure)
TLEDDYANAWQEWSAAG [MazE-mt1 α3 peptide (Thr42-Gly58)],binds,–
B1,–,binds
